Measured values as given in the DeepSol protein solubility set.

Assay: soluble on expression in E. coli; label from the status in PepcDB or PDB records

| Sequence | soluble on expression in E. coli |
| --- | --- |
| MAALSDKLADAYQNARPRYPIDWFTKLAARTGQHKSAWDVGTGNGQAAIGLAEYFEKVTATDINEAQLKRAVKHERISYHHTPTTMSEDQMVALVGGDNSVDLIVAAQAVHYFDLAPFYNVAKRVLRKEGGLIAVFVYNDIIISPEVDSIMKRLVDSTFPFRTPVMNLAFDGYKTLPFPFESIGMGSEGKPIMLDIPHKLSLKGFIGFLRSWQPAMKAKERGVELVTEDLISKFEDAWGDDDDVKDIFYKAHMIVGKLSASDIERHRKRFDTNCVVTTLKDHNNSAVIASVTAAAFAGVAAYCAYSARKNS | soluble |
| MAAPAQQTTQPGGGKRKGKAQYVLAKRARRCDAGGPRQLEPGLQGILITCNMNERKCVEEAYSLLNEYGDDMYGPEKFTDKDQQPSGSEGEDDDAEAALKKEVGDIKASTEMRLRRFQSVESGANNVVFIRTLGIEPEKLVHHILQDMYKTKKKKTRVILRMLPISGTCKAFLEDMKKYAETFLEPWFKAPNKGTFQIVYKSRNNSHVNREEVIRELAGIVCTLNSENKVDLTNPQYTVVVEIIKAVCCLSVVKDYMLFRKYNLQEVVKSPKDPSQLNSKQGNGKEAKLESADKSDQNNTAEGKNNQQVPENTEELGQTKPTSNPQVVNEGGAKPELASQATEGSKSNENDFS | not soluble |
| MAAQPNAPESAWPVRELNSKVKSWIERLGHLWVEGQITQLNMKPSWKFSYITLRDPEAEASVQLTCATSLLHSLPSRLQDGDRVVVYGKPAFYEGRGSFSLWVTDIRPVGVGELLARIERLRQQLASEGLFDPALKKPLPFLPHTIGLITGRGSAAERDVLAVAHSRWPEVKFNVINTAVQGARAVPEIIEALQRLDADPSVDVIIIARGGGSVEDLLPFSEEALQRAVVAAHTPVVSAIGHEPDNPVLDNVADLRAATPTDAAKKVVPDVAAERQLIAELRSRSAAALRGWVHKERQQLAAVRSRPALADPVRAITLHREEIARSISSIRRDMRYMLSTERATVASLRQQVAALGPSATLARGYAVVQVVPRDGSAPEVVTTIGMSPPGSQLRIRVADGSITAAAMQTTPAD | not soluble |
| MAAQVLSGHEAAEAVYEEIRARLRSLSFTPSLRVIRLGEDPASVAYVRLKDKRARALGYRSQVEVYPEDLPEEALLERIAALNADEEVDGILVQLPLPPHIRTQRVLEAIHPLKDVDGFHPLNVGRLWSGGKGLFPCTPLGVVRLLKHYGVDLRGKEVVVVGRSNIVGKPLAGLLLREDATVTLAHSKTQDLPEVTRRAQVLVVAVGRPHLVRKEWVREGAIVVDVGVNRVEGRLLGDVHPEVAEVAFALTPVPGGVGPMTVAMLMGNTLEAALLRRHGASG | soluble |
| MAASKKAVLGPLVGAVDQGTSSTRFLVFNSKTAELLSHHQVEIKQEFPREGWVEQDPKEILHSVYECIEKTCEKLGQLKIDISNIKAIGVSNQRETTVVWDKITGEPLYNAVVWLDLRTQSTVESLSKRITGNNNFVKSKTGLPLSTYFSAVKLRWLLDNVRKVQKAVEEKRALFGTIDSWLIWSLTGGVNGGVHCTDVTNASRTMLFNIHSLEWDKQLCEFFGIPMEILPNVRSSSEIYGLMKISHSVKAGALEGVPISGCLGDQSAALVGQMCFQIGQAKNTYGTGCFLLCNTGHKCVFSDHGLLTTVAYKLGRDKPVYYALEGSVAIAGAVIRWLRDNLGIIKTSEEIEKLAKEVGTSYGCYFVPAFSGLYAPYWEPSARGIICGLTQFTNKCHIAFAALEAVCFQTREILDAMNRDCGIPLSHLQVDGGMTSNKILMQLQADILYIPVVKPSMPETTALGAAMAAGAAEGVGVWSLEPEDLSAVTMERFEPQINAEESEIRYSTWKKAVMKSMGWVTTQSPESGIP | not soluble |
| MAASLGLAAAAASAWAQAPAMDHGSMPGMDHGAAPASAMDHGSMPGMDHGAAPAPAIGALPSSDGAGDQSYAAYGIHSHMMDDMATSQLLFDKLGMTYDRDRRTGLQWDGQFWVGRDLDKLWIKSEGERVGGRSDGKVEAFWNRTISPFWDLQVGARRDFGTGPKRNWGAIGLQGVAPYNIETEVTAYVGGSGRTALALKAEYDLLLTQRLVLTPEIEASVYGKDDKARGIGAGLSDASFSLRLRYEITREVAPYVGVSFGRKFGRTASYASEEGESRSERAIMAGVRIWFLEHHHHHH | not soluble |
| MAATATEKLPQLKSAVDGLTEMSENEKSGFINLVSRYLSGEAQHIEWSKIQTPTDEIVVPYDKMANVSEDASETKYLLDKLVVLKLNGGLGTTMGCTGPKSVIEVRDGLTFLDLIVIQIENLNNKYNCKVPLVLMNSFNTHDDTQKIVEKYTKSNVDIHTFNQSKYPRVVADEFVPWPSKGKTDKDGWYPPGHGDVFPSLMNSGKLDAFLSQGKEYVFIANSDNLGAIVDLKILKHLIQNKNEYCMEVTPKTLADVKGGTLISYEGKVQLLEIAQVPDEHVNEFKSIEKFKIFNTNNLWVNLKAIKKLVEADALKMEIIPNPKEVDGVKVLQLETAAGAAIRFFDNAIGVNVPRSRFLPVKATSDLLLVQSDLYTLVDGFVTRNKARTNPTNPAIELGPEFKKVASFLSRFKSIPSIVELDSLKVSGDVWFGSGVVLKGKVTVKANAGTKLEIPDNAVLENKDINGPEDL | soluble |
| MAAVDVNQPITGHKSAIIRNYNTNPRLIYQTVCGVNGPLVILNDVKFPQFSEIVKITLPDGSKRSGQVLEISKNKAVVQVFEGTSGIDAKNTICEFTGDILRTPVSEDMLGRIFNGSGKPIDKGPPVLAEDFLDINGQPINPWSRIYPEEMIQTGISAIDVMNSIARGQKIPIFSASGLPHNEIAAQIVRQGGLVQLPDRPHEQTNFAIVFAAMGVNMETARFFKQDFEENGSMENVCLFLNLANDPTIERIITPRIALTSAEFLAYQCKKHVLVVLTDMSSYAEALREVSAAREEVPGRRGFPGYMYTDLATIYERAGRVEGRDGSITQIPILTMPNDDITHPIPDLTGYITEGQIYVDRQLHNRLIYPPINVLPSLSRLMKSAIGEGMTREDHSDVSNQLYACYAIGKDVQAMKAVVGEEALSSDDLLYLEFLTKFEKNFITQGHYENRSVFESLDIGWQLLRIFPREMLKRIPESTLEKYYPRGGAKE | not soluble |
| MADGMGNLIGWEKTGLVVGKQWITAKDDKVSDVCNANGEMGVIGLYEPFSHGALTIPGHPNCRCEVVSVSGGELGEFAEKKELRKAAMQYARDNFIGKSYVNKNSGHELKVTWQGVKHAASKANQAELSIMTKLDDLLRYAKYEGSYSDRKGHPNIIAAHKYRAVAKVGNESLNIGVIVREFPDDHKHYDHFILKDE | not soluble |
| MADLFAGKPLINQEGKELDGGDALRGKKVVALYFSAMWCGSCRQFTPKLKRFYEALKAAGKEIEVVLVSRDREAEDLLEYLGHGGDWVAIPFGDERIQEYLKKYEVPTIPAFKLINNAGELLHDARADVTERGKDDAVALFDEWVEKFPAN | not soluble |
| MADLIARLREDGIQKRVIQEGRGELPDFQDGTKATFHFRTLHSDNEGSVIDDSRTRGKPMELIVGKKFKLPVWETIVCTMREGEIAQFLCDIKHVVLYPLVAKSLRNIAEGKDPLEGQRHCCGIAQMHEHSSLGHADLDALQQNPQPLIFHIEMLKVESPGTYQQDPWAMTDEEKAKAVPVIHQEGNRLYREGQVKEAAAKYYDAIACLKNLQMKEQPGSPDWIQLDLQITPLLLNYCQCKLVAQEYYEVLDHCSSILNKYDDNVKAYFKRGKAHAAVWNAQEAQADFAKVLELDPALAPVVSRELRALETRIRQKDEEDKARFRGIFSH | soluble |
| MADRKSDEGEDEYQHKEQMVTNRTSSFQPKSTEDSISKLAKMRAADRREEFMEERASFSAVKRGYQAGDDEEDDFTAEEEPPAKKPLTVAERLMAAMGHKAGEGLGKHGQGISEPIASSTQRGRTGLGHNAGKATARDFNEVWDETTEEKTVVERVEWMTDIEEEKRAEICEQLKDDKWMVIGKEKRTIDDETKFCSQQSITEMIEAKNVFDLMSDKDLREARTRANPYETIGSAFFQNRAAMKTANMDKIYDWILSRENTENDRFLLKNPLQESQTAENVDRSEDLFYFADVCAGPGGFSEYMLWRKGFYNAKGFGFTLAGKDDFKLFKFTASSQYFFETFYGTKDNGDVMDPVNIDSLEAHISRGTSGLGVHLMMADGGFSVEGQENIQEILSKRLYLCQLLVSLCIVREGGNFFCKLFDIFTPFSVGLIYLMRVCYQSVSLHKPHTSRPANSERYITCKGLRKEFANVVKEYLKRVNRKLDELKNKKSHDDVTDLMPLDVIEADQIFMDEIIRHNEFLANRQTLYLRKYQSFAKNQGQFDKDQGNLRDECLKYWQVPNKQRPRGGDRGNRHDNMQRLNPLQVYGKYCKKVCGESEIGNTFPDFSLNCLDAPLPNIPYEEYRFVPLASSGSPNLLIAAGDSAFIFRSGRFESISADHIRIPENTILLVDWAEEVVRGDGNRIKISSEPQVVRIIDAAVLFGDDVSNLPYEERMKAAEKFVAALKQTNRKVKKGWGHRAEMIKPHLKICAKTYSLAELDEFRSNLEKLEHNRELAVLFTEGEFTFRCQALRFTRIIKQEWRMGWSKSQQKPYAHSQEHQNAGSIPVELWAEKSIYSSFWDSVICLNKDKKKLMEAMEHTKGKCPIPSSIWSWKACILNLFPFFSVRTPYGPEKILNYPEPFEGKPTIAALKAQIENTDLIVKRVRN | not soluble |
| MADSEADKPLRKISAAFKKLAIIVNSPNPEVPVTQFSHACSLVSPLFGCLGIAFKFAEMDYVAKVDDLVRASSSISTLVVMMDKDIEADCVRKAGSHTRNLLRVKRGLDMVKVLFEQIIASEGDNSLKDPATKSYAQVFAPHHGWAIRKAVSLGMYALPTRAHLLNMLKEDEAAAKIHMQSYVNSSAPLITYLDNLFLSKQLGIDW | not soluble |
| MADSKAKPAKAANKTPPKSPGDPARAAKRLSLESEGANEGATAAPELSALEEAFRRFAVHGDTRATGKEMHGKNWSKLCKDCHVIDGKNVTVTDVDIVFSKIKGKSCRTITFEQFQEALEELAKKRFKDKSSEEAVREVHRLIEGRAPVISGVTKAVSSPTVSRLTDTSKFTGSHKERFDQSGKGKGKAGRVDLVDESGYVPGYKHAGTYDQKVQGGK | soluble |
| MADSNSTVEQYRSLKRKMIEKKDLMRNNRTALRACILFNCLLGTSIRDAYNQFCRAVGSDVMEYREYEFWFYQFKRGDADFSDAISWNPNTIKLDELPIEVINTISSFSMPMERLTLRKVSKNLRTLIDSEPFCFQRIIVRIGHRTSYLQLDGYPGIEYIHCGADCNVLYGKRDKYVKNKNHVEYALTEAIQLMRNSNNHSKEFHVRAERSNDQELSMVLRKFFDSVEIELYAKKIVVSGFSFADTSSVLCHFKAGFLEEIQVLPGSGGPWTNVLVEMEQYKKAKVLKICTEFPVLLDIEDLLHFRRFEIAIKSDFTERMARKIRDVLTNSEHFEYAHIITQDLHHRTVIKFFNRNAENVFWNYGSMNYNNKKRLFHIEYNHRQFVIKKLNM | not soluble |
| MADTKAKLTLNGDTAVELDVLKGTLGQDVIDIRTLGSKGVFTFDPGFTSTASCESKITFIDGDEGILLHRGFPIDQLATDSNYLEVCYILLNGEKPTQEQYDEFKTTVTLHTMIHEQITRLFHAFRRDSHPMAVMCGITGALAAFYHDSLDVNNPRHREIAAFRLLSKMPTMAAMCYKYSIGQPFVYPRNDLSYAGNFLNMMFSTPCEPYEVNPILERAMDRILILHADHEQNASTSTVRTAGSSGANPFACIAAGIASLWGPAHGGANEAALKMLEEISSVKHIPEFFRRAKDKNDSFRLMGFGHRVYKNYDPRATVMRETCHEVLKELGTKDDLLEVAMELENIALNDPYFIEKKLYPNVDFYSGIILKAMGIPSSMFTVIFAMARTVGWIAHWSEMHSDGMKIARPRQLYTGYEKRDFKSDIKR | soluble |
